Patent US20240327847, “COMPOSITIONS AND METHODS FOR RNA AFFINITY” (SANOFI, published 2024)

Biological target: streptavidin (UniProt P22629 P22629:25-183)
Experiment: pulldown; recovery similar to tRNA scaffold control, described as non-specific under these conditions
Settings: tags: immobilised on sepharose beads (streptavidin sepharose); chain copies: 4 (inferred)
Protocol: Subsequently, the beads were resuspended in 20 μL of binding buffer with RNasin Ribonuclease Inhibitor (3 μL/100 units) and then incubated on ice for 15 minutes. (2) Preparation of RNA aptamers. 2.5 μg of the RNA aptamers were resuspended in 10 μL binding buffer. Refolding of the RNA aptamers was performed by heating at 56° C. for 5 min, 37° C. for 10 min, followed by a room temperature incubation for 5 minutes to refold aptamer structure. At the end of the RNA aptamer preparation procedure, 2 μL of the random aptamer and the Sim aptamer in a 1:2 mix with binding buffer were collected as a control for total RNA aptamer yield (input control). (3) Incubation conditions. 10 μL of refolded aptamer containing mRNA (2.5 μg) aptamers were added to the beads and incubated at 4° C. for 2 hours on a rotator. Subsequently, beads were washed 3 times with 100 μL of binding buffer and kept on ice for the remainder of the procedure to maintain aptamer secondary structure. (4) Elution of RNA aptamers from beads. Elution was performed with 250 μL phenol-based reagent in the following steps. […] RNA concentration following streptavidin affinity purification was quantified on a Nanodrop using parameters set by the manufacturer's specifications.
Affinity binding of the Sm, tRNA, tRNA-Sm, and 2× tRNA Sm aptamer tags were analyzed. […]

Sequence of streptavidin (P22629 25-183, one chain of several): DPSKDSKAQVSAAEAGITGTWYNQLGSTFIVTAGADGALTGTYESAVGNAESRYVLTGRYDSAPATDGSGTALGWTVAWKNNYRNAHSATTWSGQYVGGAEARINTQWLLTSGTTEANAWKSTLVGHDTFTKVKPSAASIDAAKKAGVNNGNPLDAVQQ

Binder: CGACCAGAAUCAUGCAAGUGCGUAAGAUAGUCGCGGG (ssRNA) [Sm aptamer (pAM20)]
- binding result: no binding
